From the supplement of paper PMC7877785 come the findings set out here.

± gives the uncertainty stated by the source.

The data set is described as follows: self-splicing fitness, log relative to wild type (ln ratio); higher = more splicing; Tetrahymena group I intron in knt gene, E. coli kanamycin selection, DiMSum; sequences stand for … in CUCUCU…GGAGGGAAAAGUUAUCAGGCAUGCACCUGGUAGCUAGUCUUUAAACCAAUAGAUUGCAUCGGUUUAAAAGGCAAGACCGUCAAAUUGCGGGAAAGGGGUCAACAGCCGUUCAGUACCAAGUCUCAGGGGAAACUUUGAGAUGGCCUUGCAAAGGGUAUGGUAAUAAGCUGACGGACAUGGUCCUAACCACGCAGCCAAGUCCUAAGUCAACAGAUCUUCUGUUGAUAUGGAUGCAGUUCACAGACUAAAUGUCGGUCGGGGAAGAUGUAUUCUUCUCAUAAGAUAUAGUCGGACCUCUCCUUAAUGGGAGCUAGCGGAUGAAGUGAUGCAACACUGGAGCCGCUGGGAACUAAUUUGUAUGCGAAAGUAUAUUGAUUAGUUUUGGAGUACUCGUGGUCG
In a few lines:
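Library with all eight P1ex-region intron nucleotides randomised, intron inside the knt kanamycin-resistance gene on pET-22b(+), in E. coli BL21(DE3). Cells grew overnight at 37°C or 30°C on LB agar with or without 25 μg/mL kanamycin (plus 100 μg/mL carbenicillin, 50 μM IPTG, 0.2% rhamnose), in six replicate transformations. Pooled colonies were amplicon-sequenced on Illumina HiSeq 2500. DiMSum fitness is the error-weighted combination of wild-type-normalised replicate fold changes, kanamycin versus none.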

Take UAAAAGCAAUAUUACGAUAC: the “self-splicing fitness (ln)” value is, setting by setting: (30 °C) -2.36 ± 0.31; (37 °C) -3.93 ± 0.46.

On to UAAAAGCAAUAUUACGAUGU, for which the “self-splicing fitness (ln)” value reads like this: (30 °C) -2.44 ± 0.15; (37 °C) -1.33 ± 0.19.

In the case of UAAAAGCAAUAUUACGCAAA, the “self-splicing fitness (ln)” value is, setting by setting: (30 °C) -3.71 ± 0.4; (37 °C) -0.788 ± 0.18.

On to UAAAAGCAAUAUUACGCAUG, for which the “self-splicing fitness (ln)” value reads like this: (30 °C) -0.716 ± 0.068; (37 °C) -0.257 ± 0.1.

As to UAAAAGCAAUAUUACGCCCC, the “self-splicing fitness (ln)” value was -3.1 ± 0.49 (30 °C) and 0.13 ± 0.35 (37 °C).

Take UAAAAGCAAUAUUACGGACU: the “self-splicing fitness (ln)” value was -1.21 ± 0.072 (30 °C) and -0.711 ± 0.094 (37 °C).

As to UAAAAGCAAUAUUACGGCCG, the “self-splicing fitness (ln)” value runs as follows: (30 °C) 0.132 ± 0.12; (37 °C) 0.444 ± 0.17.

With UAAAAGCAAUAUUACGGCGA, the “self-splicing fitness (ln)” value was -0.67 ± 0.11 (30 °C) and 0.453 ± 0.13 (37 °C).

UAAAAGCAAUAUUACGGCGU: the “self-splicing fitness (ln)” value (30 °C) was -1.12 ± 0.084 and the “self-splicing fitness (ln)” value (37 °C) was -0.0589 ± 0.1.

Consider UAAAAGCAAUAUUACGGCUA, for which the “self-splicing fitness (ln)” value runs as follows: (30 °C) 0.159 ± 0.073; (37 °C) -0.0882 ± 0.084.

For the sequence UAAAAGCAAUAUUACGGGGA, the “self-splicing fitness (ln)” value runs as follows: (30 °C) -1.73 ± 0.12; (37 °C) -0.962 ± 0.12.

As for UAAAAGCAAUAUUACGGGGG, the “self-splicing fitness (ln)” value by setting is: (30 °C) -2.62 ± 0.19; (37 °C) -2.43 ± 0.24.

For the sequence UAAAAGCAAUAUUACGGGUG, the “self-splicing fitness (ln)” value is, setting by setting: (30 °C) -0.67 ± 0.042; (37 °C) -0.46 ± 0.061.

For the sequence UAAAAGCAAUAUUACGGUCG, the “self-splicing fitness (ln)” value was -0.35 ± 0.087 (30 °C) and -0.0674 ± 0.1 (37 °C).

For the sequence UAAAAGCAAUAUUACGUAGC, the “self-splicing fitness (ln)” value was -3.26 ± 0.19 (30 °C) and -2.72 ± 0.18 (37 °C).

For UAAAAGCAAUAUUACGUAUC, the “self-splicing fitness (ln)” value reads like this: (30 °C) -3.81 ± 0.35; (37 °C) -2.07 ± 0.23.

As to UAAAAGCAAUAUUACGUUGG, the “self-splicing fitness (ln)” value (30 °C) is -2.36 ± 0.1 and the “self-splicing fitness (ln)” value (37 °C) was -1.42 ± 0.12.

On to UAAAAGCAAUAUUACGUUUC, for which the “self-splicing fitness (ln)” value is -3.32 ± 0.14 (30 °C) and -2.36 ± 0.19 (37 °C).

Take UAACAGCAAUAUUACGCCAC: the “self-splicing fitness (ln)” value reads like this: (30 °C) -3.93 ± 0.35; (37 °C) -1.54 ± 0.23.

On to UAACAGCAAUAUUACGCCCG, for which the “self-splicing fitness (ln)” value reads like this: (30 °C) -0.202 ± 0.16; (37 °C) -0.59 ± 0.18.

UAACAGCAAUAUUACGCGGU: the “self-splicing fitness (ln)” value is, setting by setting: (30 °C) -3.25 ± 0.17; (37 °C) -3.29 ± 0.15.

As to UAACAGCAAUAUUACGCUCC, the “self-splicing fitness (ln)” value (30 °C) is -2.62 ± 0.32 and the “self-splicing fitness (ln)” value (37 °C) was -1.22 ± 0.3.

UAACAGCAAUAUUACGCUUG: the “self-splicing fitness (ln)” value is -0.975 ± 0.06 (30 °C) and -0.577 ± 0.082 (37 °C).

Regarding UAACAGCAAUAUUACGGAAC, the “self-splicing fitness (ln)” value is -3.85 ± 0.24 (30 °C) and -4.18 ± 0.39 (37 °C).

UAACAGCAAUAUUACGGACC: the “self-splicing fitness (ln)” value runs as follows: (30 °C) -3.44 ± 0.43; (37 °C) -1.98 ± 0.28.

Regarding UAACAGCAAUAUUACGGAGA, the “self-splicing fitness (ln)” value is, setting by setting: (30 °C) -3.27 ± 0.21; (37 °C) -1.1 ± 0.11.

UAACAGCAAUAUUACGGCUA: the “self-splicing fitness (ln)” value is, setting by setting: (30 °C) 0.184 ± 0.052; (37 °C) -0.0982 ± 0.067.

As to UAACAGCAAUAUUACGGGAA, the “self-splicing fitness (ln)” value (30 °C) is -1.76 ± 0.13 and the “self-splicing fitness (ln)” value (37 °C) is -1.35 ± 0.11.

For the sequence UAACAGCAAUAUUACGGUAU, the “self-splicing fitness (ln)” value was -3.01 ± 0.11 (30 °C) and -2.06 ± 0.17 (37 °C).

Turning to UAACAGCAAUAUUACGGUUC, the “self-splicing fitness (ln)” value is -2.65 ± 0.069 (30 °C) and -1.28 ± 0.08 (37 °C).

UAACAGCAAUAUUACGUAAC: the “self-splicing fitness (ln)” value (30 °C) was -2.93 ± 0.17 and the “self-splicing fitness (ln)” value (37 °C) is -1.62 ± 0.16.

Turning to UAACAGCAAUAUUACGUAGU, the “self-splicing fitness (ln)” value (30 °C) is -3.35 ± 0.14 and the “self-splicing fitness (ln)” value (37 °C) is -2.7 ± 0.18.

Take UAACAGCAAUAUUACGUCGA: the “self-splicing fitness (ln)” value is -1.03 ± 0.12 (30 °C) and 0.186 ± 0.098 (37 °C).

As for UAACAGCAAUAUUACGUCGG, the “self-splicing fitness (ln)” value (30 °C) was -0.858 ± 0.066 and the “self-splicing fitness (ln)” value (37 °C) was -0.53 ± 0.08.

In the case of UAACAGCAAUAUUACGUGAC, the “self-splicing fitness (ln)” value by setting is: (30 °C) -3.68 ± 0.2; (37 °C) -2.46 ± 0.17.

Take UAACAGCAAUAUUACGUUCA: the “self-splicing fitness (ln)” value was -0.481 ± 0.049 (30 °C) and 0.0141 ± 0.07 (37 °C).
